± gives the standard deviation of the averaged measurements.
What follows are sequences tested on ATP (assay: switch fluorescence ratio, 500 uM ATP over buffer (Cy3 cluster intensity, sum of 5 cycles each) (fold (ratio)); higher = stronger signal-on switching upon ATP binding; sequences stand for … in TCGTCGGCAGCGTCAGATGTGTATAAGAGACAGTTTTTTTTTTTTTTTTTTTTTTTTT…TC). Conditions: aptamer strand: ATP DNA aptamer (quencher-CACCTGGGGGAGTATTGCGGAGGAAGG + anchor), 100 nM annealed; ATP concentration: 500 uM.
How it was run: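 The quencher-labelled ATP aptamer, at 100 nM, was annealed to Cy3-labelled switching-strand clusters on a modified Illumina MiSeq flow-cell. The clusters were imaged in selection buffer, then after 15 min with 500 uM ATP at 22 °C, and this buffer/ATP cycle ran five times with NaOH stripping and re-annealing between runs. Per-cluster fluorescence ratios, summed target-cycle over summed buffer-cycle Cy3 intensity, were averaged per switch-domain sequence. Clusters outside 100-1000 RFU were excluded.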
Work on CTGTTGAGGG yielded a switch fluorescence ratio of 1 ± 0.027. CTGTTGGGCC was tested, and the switch fluorescence ratio was 0.9949 ± 0.0047. Work on CTGTTGGGTT yielded a switch fluorescence ratio of 0.997 ± 0.016. CTGTTTATTT gave a switch fluorescence ratio of 1.36 ± 0.54. CTTAAAGGCC gave a switch fluorescence ratio of 0.984 ± 0.026. Sequence CTTAAAGTCG has a switch fluorescence ratio of 0.981 ± 0.0073. CTTAAATCTG was tested, and the switch fluorescence ratio was 0.974 ± 0.084. For CTTAAATGAA, the switch fluorescence ratio was 1.02 ± 0.036. CTTAAATTAA gave a switch fluorescence ratio of 0.989 ± 0.051. For CTTAAATTCG, the switch fluorescence ratio was 0.987 ± 0.018. With CTTAACCTTC the switch fluorescence ratio was 2.43 ± 0.31. CTTAACGGGA gave a switch fluorescence ratio of 0.99 ± 0.026. Work on CTTAACTTAG yielded a switch fluorescence ratio of 1.047 ± 0.0015. Sequence CTTACAGGTT has a switch fluorescence ratio of 0.99 ± 0.036. With CTTACGGAGG the switch fluorescence ratio was 1.01 ± 0.015. With CTTAGAATTG the switch fluorescence ratio was 1.02 ± 0.012. Sequence CTTAGATCTG has a switch fluorescence ratio of 1 ± 0.027. CTTAGATGGT gave a switch fluorescence ratio of 0.975 ± 0.015. CTTAGATTTT gave a switch fluorescence ratio of 0.988 ± 0.025. With CTTAGGAAAG the switch fluorescence ratio was 0.98833 ± 0.00059. With CTTAGGCGGT the switch fluorescence ratio was 1.038 ± 0.0062. CTTAGGGCGG showed a switch fluorescence ratio of 0.957 ± 0.027. CTTAGGGTTG showed a switch fluorescence ratio of 0.999 ± 0.013. CTTAGTATAT was tested, and the switch fluorescence ratio was 1 ± 0.024. Sequence CTTAGTGTTC has a switch fluorescence ratio of 0.992 ± 0.028. Work on CTTATAATTG yielded a switch fluorescence ratio of 0.9935 ± 0.00017. In the case of CTTATACTGG, the switch fluorescence ratio is reported as 1.02 ± 0.011. CTTATAGGTG showed a switch fluorescence ratio of 1.14 ± 0.059. In the case of CTTATCTCTT, the switch fluorescence ratio is reported as 1.02 ± 0.025. Work on CTTATGACAG yielded a switch fluorescence ratio of 0.988 ± 0.011. CTTATGGACT was tested, and the switch fluorescence ratio was 0.991 ± 0.033. CTTATTAACT gave a switch fluorescence ratio of 0.9954 ± 0.0069. Sequence CTTATTAAGC has a switch fluorescence ratio of 1.05 ± 0.011. For CTTATTGTAG, the switch fluorescence ratio was 0.964 ± 0.061. Work on CTTATTTCCG yielded a switch fluorescence ratio of 1.032 ± 0.0096. CTTATTTGGG gave a switch fluorescence ratio of 0.997 ± 0.031. For CTTCACACGT, the switch fluorescence ratio was 1.016 ± 0.01. With CTTCAGGGAA the switch fluorescence ratio was 1.01 ± 0.032. Sequence CTTCGGCCTT has a switch fluorescence ratio of 0.976 ± 0.02. Sequence CTTCGGTTCT has a switch fluorescence ratio of 1.02 ± 0.028. CTTCTAAGTC gave a switch fluorescence ratio of 1.004 ± 0.0097. Work on CTTCTAGTCC yielded a switch fluorescence ratio of 1.03 ± 0.028. CTTCTGTCGT showed a switch fluorescence ratio of 1.034 ± 0.0018. In the case of CTTCTTGGAG, the switch fluorescence ratio is reported as 0.967 ± 0.026. Work on CTTGAAGATG yielded a switch fluorescence ratio of 0.973 ± 0.065. In the case of CTTGAAGGGA, the switch fluorescence ratio is reported as 0.995 ± 0.029. Sequence CTTGAATCGT has a switch fluorescence ratio of 0.987 ± 0.013. For CTTGACTGTG, the switch fluorescence ratio was 1.03 ± 0.011. For CTTGAGACGG, the switch fluorescence ratio was 1.01 ± 0.017. CTTGCCGGCG gave a switch fluorescence ratio of 1.07 ± 0.03. With CTTGCGGCCT the switch fluorescence ratio was 1.11 ± 0.15. Sequence CTTGCGGGCG has a switch fluorescence ratio of 0.982 ± 0.012. CTTGCGGGGA showed a switch fluorescence ratio of 1.0408 ± 0.00045. In the case of CTTGCTTTTT, the switch fluorescence ratio is reported as 0.948 ± 0.0035. CTTGGAATGT gave a switch fluorescence ratio of 1.01 ± 0.029. CTTGGAGGA gave a switch fluorescence ratio of 1.024 ± 0.0093. CTTGGAGGCG showed a switch fluorescence ratio of 1.01 ± 0.036. CTTGGAGTTA gave a switch fluorescence ratio of 0.997 ± 0.025. CTTGGATGGG gave a switch fluorescence ratio of 0.9858 ± 0.0089. For CTTGGATGTC, the switch fluorescence ratio was 0.985 ± 0.03. CTTGGGCATG was tested, and the switch fluorescence ratio was 0.988 ± 0.019. Work on CTTGGGGAGC yielded a switch fluorescence ratio of 0.982 ± 0.07. With CTTGGGGATG the switch fluorescence ratio was 0.997 ± 0.042. For CTTGGGGCTA, the switch fluorescence ratio was 1.03 ± 0.088. Work on CTTGGGGCTC yielded a switch fluorescence ratio of 0.9457 ± 0.0082. For CTTGGGGGCG, the switch fluorescence ratio was 1.01 ± 0.056. Work on CTTGGGGGTC yielded a switch fluorescence ratio of 0.989 ± 0.014. For CTTGGTAATA, the switch fluorescence ratio was 1.062 ± 0.0066. In the case of CTTGGTAGGG, the switch fluorescence ratio is reported as 1.03 ± 0.051. CTTGGTCCCG showed a switch fluorescence ratio of 1.01 ± 0.011. With CTTGGTGACG the switch fluorescence ratio was 1.09 ± 0.031. CTTGGTGGGA was tested, and the switch fluorescence ratio was 1.04 ± 0.012. CTTGGTGGTG gave a switch fluorescence ratio of 0.995 ± 0.019. In the case of CTTGGTTGCG, the switch fluorescence ratio is reported as 0.999 ± 0.014. CTTGGTTGCT gave a switch fluorescence ratio of 0.997 ± 0.032. CTTGGTTTAG gave a switch fluorescence ratio of 1.01 ± 0.035. Sequence CTTGTAACTT has a switch fluorescence ratio of 1.01 ± 0.032. Sequence CTTGTAAGGT has a switch fluorescence ratio of 0.976 ± 0.022. In the case of CTTGTCAAGT, the switch fluorescence ratio is reported as 0.984 ± 0.071. Sequence CTTGTCACCA has a switch fluorescence ratio of 0.988 ± 0.022. CTTGTCGTGC showed a switch fluorescence ratio of 0.995 ± 0.033. For CTTGTGACAC, the switch fluorescence ratio was 1.02 ± 0.033. CTTGTGAGGG showed a switch fluorescence ratio of 0.985 ± 0.037. CTTGTGGCGG was tested, and the switch fluorescence ratio was 0.97 ± 0.0098. CTTGTGTGTC was tested, and the switch fluorescence ratio was 0.999 ± 0.015. For CTTTAAAAAG, the switch fluorescence ratio was 1 ± 0.059. For CTTTAACGAG, the switch fluorescence ratio was 0.9976 ± 0.0043. CTTTAACGGT was tested, and the switch fluorescence ratio was 1 ± 0.026. Sequence CTTTAACGTT has a switch fluorescence ratio of 0.981 ± 0.0073. In the case of CTTTAAGCTT, the switch fluorescence ratio is reported as 0.9981 ± 0.0027. CTTTAATGTT was tested, and the switch fluorescence ratio was 0.988 ± 0.037. With CTTTACGTCG the switch fluorescence ratio was 0.982 ± 0.016. In the case of CTTTACTAGG, the switch fluorescence ratio is reported as 1.016 ± 0.0052. In the case of CTTTAGGGTG, the switch fluorescence ratio is reported as 1.06 ± 0.047. For CTTTAGTACG, the switch fluorescence ratio was 0.9734 ± 0.0012. Work on CTTTATATCT yielded a switch fluorescence ratio of 0.993 ± 0.03. With CTTTCCTATG the switch fluorescence ratio was 1.07 ± 0.019. CTTTCTGGGG was tested, and the switch fluorescence ratio was 0.991 ± 0.017. CTTTGAATTG gave a switch fluorescence ratio of 0.987 ± 0.023. Work on CTTTGAGACG yielded a switch fluorescence ratio of 0.978 ± 0.068. In the case of CTTTGCTAAC, the switch fluorescence ratio is reported as 2.21 ± 0.072. With CTTTGGAACT the switch fluorescence ratio was 1.06 ± 0.065. With CTTTGGGGAT the switch fluorescence ratio was 1.05 ± 0.12. CTTTGGTGTC showed a switch fluorescence ratio of 1.01 ± 0.029. Sequence CTTTGGTGTT has a switch fluorescence ratio of 1.01 ± 0.017. CTTTGTCAGT showed a switch fluorescence ratio of 0.979 ± 0.03. For CTTTGTTATG, the switch fluorescence ratio was 0.9909 ± 0.0047. CTTTGTTGGT showed a switch fluorescence ratio of 0.9831 ± 0.0082. Sequence CTTTGTTTTT has a switch fluorescence ratio of 0.9893 ± 0.0089. Sequence CTTTTACCGG has a switch fluorescence ratio of 1.04 ± 0.013. Sequence CTTTTAGGGG has a switch fluorescence ratio of 1.01 ± 0.012. For CTTTTGCGCA, the switch fluorescence ratio was 1.007 ± 0.0079. For CTTTTGGCCT, the switch fluorescence ratio was 1.03 ± 0.038. Sequence CTTTTGGTTT has a switch fluorescence ratio of 0.975 ± 0.032. Sequence CTTTTTGTTT has a switch fluorescence ratio of 1.01 ± 0.041. In the case of CTTTTTTGGG, the switch fluorescence ratio is reported as 1.01 ± 0.014. CTTTTTTTTG showed a switch fluorescence ratio of 0.993 ± 0.017. For GAAAAAACAC, the switch fluorescence ratio was 1.16 ± 0.1. Sequence GAAAAAATGG has a switch fluorescence ratio of 1.15 ± 0.26. GAAAAAGAGG showed a switch fluorescence ratio of 0.985 ± 0.019. Work on GAAAAAGATT yielded a switch fluorescence ratio of 0.999 ± 0.017. GAAAAAGCGG gave a switch fluorescence ratio of 1.04 ± 0.015. GAAAAAGGCA was tested, and the switch fluorescence ratio was 0.974 ± 0.033. Work on GAAAAAGGCC yielded a switch fluorescence ratio of 1.02 ± 0.011. Work on GAAAAATGAC yielded a switch fluorescence ratio of 0.999 ± 0.021. In the case of GAAAACAGTT, the switch fluorescence ratio is reported as 0.9951 ± 0.0053. GAAAACGAAT gave a switch fluorescence ratio of 1.07 ± 0.14. For GAAAAGATTG, the switch fluorescence ratio was 0.972 ± 0.024. In the case of GAAAAGGGGG, the switch fluorescence ratio is reported as 0.992 ± 0.053. GAAACAGACA showed a switch fluorescence ratio of 1.08 ± 0.035. GAAACATTGG gave a switch fluorescence ratio of 1.0357 ± 0.00021. GAAACCGTGG was tested, and the switch fluorescence ratio was 1.06 ± 0.019. With GAAACGAATT the switch fluorescence ratio was 1.02 ± 0.018. GAAACTTGTG showed a switch fluorescence ratio of 0.963 ± 0.025. Sequence GAAAGAGGGT has a switch fluorescence ratio of 1.03 ± 0.035. GAAAGATACC gave a switch fluorescence ratio of 1.03 ± 0.043. For GAAAGCGGTG, the switch fluorescence ratio was 1.01 ± 0.015. With GAAAGGAAAA the switch fluorescence ratio was 0.975 ± 0.016. In the case of GAAAGGCGAG, the switch fluorescence ratio is reported as 1.11 ± 0.053. With GAAAGGGAAA the switch fluorescence ratio was 1.03 ± 0.032. With GAAAGGGCTG the switch fluorescence ratio was 1.05 ± 0.087. Sequence GAAAGGGGCC has a switch fluorescence ratio of 1.01 ± 0.066. In the case of GAAAGGGGGC, the switch fluorescence ratio is reported as 0.963 ± 0.041. Sequence GAAAGGGTTA has a switch fluorescence ratio of 0.9898 ± 0.0085. With GAAAGTCTGT the switch fluorescence ratio was 1.07 ± 0.087. Work on GAAAGTTCGA yielded a switch fluorescence ratio of 0.987 ± 0.01. GAAATAAAAT gave a switch fluorescence ratio of 1 ± 0.024. With GAAATACCTT the switch fluorescence ratio was 0.976 ± 0.0021. GAAATACTCT was tested, and the switch fluorescence ratio was 1.44 ± 0.12. GAAATAGGTA gave a switch fluorescence ratio of 0.988 ± 0.013. Sequence GAAATATCAT has a switch fluorescence ratio of 0.971 ± 0.018. GAAATATGGC gave a switch fluorescence ratio of 1.15 ± 0.062. With GAAATCACTC the switch fluorescence ratio was 1.15 ± 0.13.

Reference: the supplement of paper PMC10126150
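Note: ATP exposure 15 min at 22 °C before imaging.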
